The values below come from article PMC3252480 (Nature structural & molecular biology, 2011).

A value given as a limit tells only on which side of the number the result lay.

Sequences and labels used below:
T1: GST-Ypt53 (S. cerevisiae, UniProt P36019 1-220)
T1 sequence (looked up): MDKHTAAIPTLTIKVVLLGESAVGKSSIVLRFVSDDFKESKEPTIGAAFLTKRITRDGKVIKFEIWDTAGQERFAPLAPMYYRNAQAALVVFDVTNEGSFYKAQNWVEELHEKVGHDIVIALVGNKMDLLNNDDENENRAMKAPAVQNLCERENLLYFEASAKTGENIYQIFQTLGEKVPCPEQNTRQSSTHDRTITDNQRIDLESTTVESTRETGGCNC

B1: GST-Ypt10 (natural protein, S. cerevisiae, UniProt P38146 1-199, looked up)
chain: MEATIKVVLLGDSSVGKTSIVTRLKSGKFLAKHAATIGAAFITKTIEVPSNDSSTEKRIHMEIWDTAGQERYKSLVPMYYRDANIALIVFELGDVSSLQCAKTWFQDLQDRAQGTQVIIVGNKYDLVCEEHSGEVTIPAELQGLPYVAVSAKTGYNFDTLNKIIISLVPESQFKTLSKNNEQGNILEINKKKSGSGCIC
B2: Vps21-His10 (natural protein, S. cerevisiae, UniProt P36017 1-210, looked up)
chain: MNTSVTSIKLVLLGEAAVGKSSIVLRFVSNDFAENKEPTIGAAFLTQRVTINEHTVKFEIWDTAGQERFASLAPMYYRNAQAALVVYDVTKPQSFIKARHWVKELHEQASKDIIIALVGNKIDMLQEGGERKVAREEGEKLAEEKGLLFFETSAKTGENVNDVFLGIGEKIPLKTAEEQNSASNERESNNQRVDLNAANDGTSANSACSC

For test [1], the target named is Vps21-His10 (S. cerevisiae) (UniProt P36017). Nature of the test: liposome tethering by quasielastic light scattering.
The test “Vps21-His10” has as its target B2. Nature of the test: bead-liposome tethering assay.
A further test has as its target T1, GST-Ypt53. Nature of the test: bead-liposome tethering assay.

In test [1], “Vps21-His10 (from UniProt P36017 1-210) (natural protein)” displayed a critical surface density for tethering of under 1300 μm^−2.

Take B1: the binding result with Vps21-His10 was “binds”.

For B2, in the test with GST-Ypt53, the binding result was “binds”.
